In PMC7199859 (The Journal of Cell Biology, 2020):
One block for each molecule: values may come before it.

What was measured:
[1] = molecular target: GAS2L1 S352D (Bio-GFP-tagged) (human) (UniProt Q99501); experiment: pull-down
[2] = molecular target: GAS2L1 S352A (Bio-GFP-tagged) (human) (UniProt Q99501); experiment: pull-down
[3] = molecular target: T1, His6-CH (recombinant GAS2L1 CH domain, His6 tagged) (human, UniProt Q99501 1-196); experiment: pull-down
T1 sequence (looked up): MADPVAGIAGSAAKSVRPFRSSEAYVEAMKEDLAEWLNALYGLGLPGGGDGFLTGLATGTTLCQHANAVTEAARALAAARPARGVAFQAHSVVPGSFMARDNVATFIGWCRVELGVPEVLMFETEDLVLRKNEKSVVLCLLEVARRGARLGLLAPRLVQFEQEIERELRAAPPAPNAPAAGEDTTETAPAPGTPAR

[4] = molecular target: taxol-stabilized microtubules from porcine brain α/β-tubulin (porcine) (UniProt P02550); experiment: co-sedimentation

- actin-binding activity relative to WT GAS2L1 [1]: 46 % higher
- actin-binding activity relative to WT GAS2L1 [2]: 62 % lower
Molecule: actin (endogenous, HEK293T; detected with anti-β-actin) (from UniProt P60709 1-375) (natural protein)

- binding result [3]: binds
B1: His6-FLAG-GAR (recombinant GAS2L1 GAR protein, 197-300) (domain or fragment, human, UniProt Q99501 197-300, looked up)
chain: GPRMTPSDLRNLDELVREILGRCTCPDQFPMIKVSEGKYRVGDSSLLIFVRVLRSHVMVRVGGGWDTLEHYLDKHDPCRCSSTAHRPPQPRVCTFSPQRVSPTT

- microtubule-binding activity relative to the GAR protein [4]: 47 % lower
B2: His6-FLAG-CH-GAR (recombinant GAS2L1 1-300) (domain or fragment)
chain: MADPVAGIAGSAAKSVRPFRSSEAYVEAMKEDLAEWLNALYGLGLPGGGDGFLTGLATGTTLCQHANAVTEAARALAAARPARGVAFQAHSVVPGSFMARDNVATFIGWCRVELGVPEVLMFETEDLVLRKNEKSVVLCLLEVARRGARLGLLAPRLVQFEQEIERELRAAPPAPNAPAAGEDTTETAPAPGTPARGPRMTPSDLRNLDELVREILGRCTCPDQFPMIKVSEGKYRVGDSSLLIFVRVLRSHVMVRVGGGWDTLEHYLDKHDPCRCSSTAHRPPQPRVCTFSPQRVSPTT
